Target: GST-tagged p65_(532–550) (human)
Experiment: pull-down

binding efficiency (bound fragment intensity/input fragment intensity) [%]	Substance
17	His-DNA-PKcs_(541-988) (from UniProt P78527 541-988) (domain or fragment)
99	His-DNA-PKcs_(2408-2819) (from UniProt P78527 2408-2819) (domain or fragment)

Source: PMC10477060
